In test [1] the target is T1, FC5DIE3IR recombinant protein.
T1 construct: Made in CHO-3E7 cells; also called FC5DIE31R; FC5DIE3R
The test can be described thus: SPR steady-state plot (Req against Conc up to 5e-6), VHH DI-D over immobilized FC5DIE3IR.

Test [2] has the same target. Kind of test: SPR, multiple cycle kinetics, VHH over immobilized FC5DIE3IR. (In SPR one partner is held on a chip, and binding of the other changes the refractive index at the surface.)
A further test deals with human Nav1.7 polypeptide (human, UniProt Q15858 1-1988). The test can be described thus: cell-based or functional assay.
In test [3] the target is T1, FC5DIE3IR recombinant protein. Kind of test: SPR (Biacore T200), VHH flowed over immobilized FC5DIE3IR, steady state fit, 25 C. The source says: (§1) Surface Plasmon Resonance for VHH antibodies. […] Monomeric VHH fractions were collected and protein concentration determined by measuring A280 measurement. Using a Biacore T200 instrument (GE Healthcare), approximately 500-1000 RUs of FC5DIE3IR, FC5 and an irrelevant VHH (2A3-H4) were immobilized on a CM5 Series S sensor chip (GE Healthcare) at pH 4.0 using standard amine coupling according to the manufacturer's instructions (GE Healthcare). […] Surfaces were regenerated by washing with a 120 s pulse of 10 mM glycine pH 1.5. Data were analyzed with Biacore T200 Software v 3.0 and affinities determined using steady state binding or a 1:1 binding model.
(§2) Surface Plasmon Resonance (SPR).

The target of a further test is T2, VHH FC5.
T2 construct: put together from its FR and CDR entries; also called FC5-VHH; FC5 control
T2 sequence (VHH, as listed by the source): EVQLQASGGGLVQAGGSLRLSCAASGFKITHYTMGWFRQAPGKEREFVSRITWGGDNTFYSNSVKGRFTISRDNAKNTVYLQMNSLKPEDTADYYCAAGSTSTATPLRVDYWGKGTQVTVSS
Kind of test: SPR, VHH flowed over immobilized FC5, 25 C.
From the text: as §1, §2

The target in test [4] is T1, FC5DIE3IR recombinant protein. Kind of test: SPR (Biacore T200), VHH flowed over immobilized FC5DIE3IR, steady-state fit, 25 C.
From the text: as §1, §2

B1: VHH DI-D (VHH)
VHH: QVKLEESGGGLVQPGGSLKLSCVASGFAFSSAPMDWVRKAPGKDVEWLSTIESDQDHTIYYANSVKGRFTISRDDVQNILYLQMNDLKIEDTATYYCQKRGEKKTRGQGTQVTVSS
notes: From the naive LAC-M library; soluble tagged monomer in protein ELISA, SPR and patch clamp; also called phage D; clone D; not shown: 6xHis and c-Myc tags on the soluble monomer
By Kd is commonly meant the concentration at which binding is half-saturated. On to B1, for which the Kd in test [1] stood at 2040 nM; in test [2] it was 2000 nM; in test [3], 1930 nM. For the same molecule, the “concentration response relationship (IC50), hNav1.7 currents” value with human Nav1.7 polypeptide came out at 1480 nM.

B2: VHH DI-48 (VHH)
VHH: QVQLVESGGGLVQAGGSLRLSCAASGRTFSTYVMGWFRQTPGKEREFVAGFSWSGDYAIYVNSVKGRFTISRDNAKNTVYLQMNSLRPEDTAVYYCAARQRGGYSGRSYYTGRNDYEYWGQGTQVTVSS
notes: From the FC5DIE3IR llama immune library; soluble tagged monomer in SPR; not shown: cmyc and His6 tags at the C-terminus
Regarding B2, in the test with VHH FC5, the binding result is on record as “no binding (tested: 312 nM-5000 nM)”. Moreover, the Kd in test [4] was found to be 8400 nM.

(Values after patent US20210206842A1 (NATIONAL RESEARCH COUNCIL OF CANADA, published 2021).)
